We go through three substances from patent US20080032929A1.

The target in assay [1] is bovine cardiac troponin T (bovine) (UniProt P13789).
For assay [2], the target named is rabbit α-tropomyosin purified from ventricular muscle (rabbit) (UniProt P58772). The assay is described as follows: ELISA solid phase protein binding: cTnT coated, serial dilutions of rabbit α-tropomyosin, detected with mAb CH1; concentration of tropomyosin for 50% maximum binding.
Assay [3] has as its target bovine cardiac troponin I purified from ventricular muscle (bovine) (UniProt P08057). The experiment in a line: ELISA solid phase protein binding: cTnT coated, serial dilutions of bovine cardiac TnI, detected with mAb TnI-1; concentration of TnI required to reach 50% of maximum binding.

For the substance µ-calpain (Calbiochem) (enzyme), the relative amounts of intact and NH2-terminal truncated cTnT, densitometry of mAb CT3 Western blots of µ-calpain treated bovine cardiac myofibrils (% intact cTnT) in assay [1] came to 1.5.

As to “intact mouse cardiac troponin T (TnT4), expressed in E. coli (from UniProt P50752)”, the values for the concentration giving a half-maximal response (EC50) in assay [2] and in assay [3] were 13.5 nM and 15.3 nM, respectively.

For “NH2-terminal truncated mouse cardiac troponin T (McTnT-ND72-291), reconstructed and expressed in E. coli (from UniProt P50752)”, the results for the concentration giving a half-maximal response (EC50) in assay [2] and in assay [3] were 9.73 nM and 8.73 nM, respectively.
